Assay results taken from US20110166062A1.

Experiments:
Test in all cases: cell-based or functional assay
GIP receptor = GIP receptor (UniProt P48546)
GLP-1 receptor = GLP-1 receptor (UniProt P43220)
glucagon receptor = glucagon receptor (UniProt P47871)
Sequence of glucagon receptor (P47871 26-477 limits assumed): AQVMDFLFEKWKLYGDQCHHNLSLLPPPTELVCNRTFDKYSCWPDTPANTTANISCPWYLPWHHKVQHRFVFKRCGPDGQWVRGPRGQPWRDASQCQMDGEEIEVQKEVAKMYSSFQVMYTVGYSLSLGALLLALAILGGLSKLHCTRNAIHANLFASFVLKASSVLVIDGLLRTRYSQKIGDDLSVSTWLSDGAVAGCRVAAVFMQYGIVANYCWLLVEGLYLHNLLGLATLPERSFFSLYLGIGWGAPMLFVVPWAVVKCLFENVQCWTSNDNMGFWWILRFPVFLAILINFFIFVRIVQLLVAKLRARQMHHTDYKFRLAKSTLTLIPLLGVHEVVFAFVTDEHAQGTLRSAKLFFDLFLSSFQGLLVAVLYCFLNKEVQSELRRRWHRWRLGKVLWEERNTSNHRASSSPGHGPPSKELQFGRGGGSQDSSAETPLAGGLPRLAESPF

Sequence of GIP receptor (P48546 22-466): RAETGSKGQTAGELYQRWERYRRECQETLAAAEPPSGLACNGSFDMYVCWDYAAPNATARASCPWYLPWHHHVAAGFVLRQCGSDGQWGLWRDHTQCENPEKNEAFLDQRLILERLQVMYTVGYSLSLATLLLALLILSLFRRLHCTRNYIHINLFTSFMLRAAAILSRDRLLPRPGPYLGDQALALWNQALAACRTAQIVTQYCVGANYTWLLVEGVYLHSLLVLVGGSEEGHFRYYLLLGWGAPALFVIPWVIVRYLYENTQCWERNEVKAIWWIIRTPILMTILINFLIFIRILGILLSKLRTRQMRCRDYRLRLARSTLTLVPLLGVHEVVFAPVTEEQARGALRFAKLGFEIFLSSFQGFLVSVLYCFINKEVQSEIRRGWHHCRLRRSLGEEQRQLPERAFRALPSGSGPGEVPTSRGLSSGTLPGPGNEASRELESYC
Sequence of GLP-1 receptor (P43220 24-463 limits assumed): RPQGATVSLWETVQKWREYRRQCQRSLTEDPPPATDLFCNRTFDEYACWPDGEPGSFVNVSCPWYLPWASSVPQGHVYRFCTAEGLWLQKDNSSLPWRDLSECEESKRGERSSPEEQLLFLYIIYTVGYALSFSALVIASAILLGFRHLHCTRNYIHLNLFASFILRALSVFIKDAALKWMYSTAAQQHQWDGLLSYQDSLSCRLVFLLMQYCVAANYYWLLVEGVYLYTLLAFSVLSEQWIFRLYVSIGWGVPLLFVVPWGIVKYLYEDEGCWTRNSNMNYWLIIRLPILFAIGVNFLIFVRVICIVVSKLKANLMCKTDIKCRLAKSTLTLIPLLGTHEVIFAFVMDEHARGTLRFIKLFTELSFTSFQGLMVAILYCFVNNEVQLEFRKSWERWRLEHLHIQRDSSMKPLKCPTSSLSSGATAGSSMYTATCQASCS

Row | EC50 (GIP receptor) [nM] | EC50 (GLP-1 receptor) [nM] | EC50 (glucagon receptor) [nM] | % activity at the glucagon receptor (glucagon receptor) [%] | Substance
1 | 0.242 | 26.9 | > 4000 |  | mt-103 (peptide)
2 |  |  |  | 0.04 | Liraglutide (peptide)
